# Experimental data taken from patent US10052364B2, “Osteocalcin as a treatment for cognitive disorders” (THE TRUSTEES OF COLUMBIA UNIVERSITY IN THE CITY OF NEW YORK, priority 2013, dated 2018).
# B1: uncarboxylated osteocalcin: Recombinant osteocalcin bacterially produced, cleaved from the GST subunit; completely undercarboxylated at all three sites (protein, listed as Homo sapiens)
# chain: MRALTLLALLALAALCIAGQAGAKPSGAESSKGAAFVSKQEGSEVVKRPRRYLYQWLGAPVPYPDPLEPRREVCELNPDCDELADHIGFQEAYRRFYGPV
# modifications: uncarboxylated
# notes: Recombinant osteocalcin bacterially produced, cleaved from the GST subunit; completely undercarboxylated at all three sites
# Key:
# Format in all cases: in vivo, mouse
# [1] = Blood brain barrier crossing: subcutaneous osteocalcin infusion, content measured in blood, bone and parts of the brain by ELISA; settings: subcutaneous pump, uncarboxylated osteocalcin 50 ng/hour, seven days, three-month-old Osteocalcin-/- mice
# Protocol: FIG. 3. Osteocalcin binds to neurons in the brain. (A) Measurement of the total osteocalcin in 3 month-old Osteocalcin^−/− mice infused subcutaneously for 7 days with either uncarboxylated osteocalcin (300 ng/hour, right panel) or PBS (left panel). Osteocalcin levels were measured in bone, serum, and different parts of the brain (cortex, midbrain, hypothalamus, brainstem, and cerebellum). (B) Subcutaneous infusion of leptin ([…], right panel) or PBS (left panel) for 7 days in ob/ob mice. Leptin levels were measured in serum, cortex, midbrain, hypothalamus, brainstem, and cerebellum. […]
# Osteocalcin^−/−, Gprc6a^−/−, Osteocalcin-mCherry, and Osteocalcin floxed mice have been previously described (Ducy et al., 1996, Nature 382:448-452; Oury et al., 2011, Cell 144:796-809). Mouse genotypes were determined by PCR. […] Leptin and osteocalcin content in sera and tissues were determined by ELISA.
# To understand how this behavioral phenotype develops, whether osteocalcin crosses the blood brain barrier (BBB) was tested by installing pumps that subcutaneously delivered vehicle or uncarboxylated osteocalcin (50 ng/hour) in three-month-old Osteocalcin^−/− mice. […] Seven days later, osteocalcin and leptin content were measured in blood, bone, and in various parts of the brain in Osteocalcin−/− and ob/ob mice, respectively. […]
# Osteocalcin-/- mice = assay: Intracerebro-ventricular (ICV) infusion in Osteocalcin-/- mice, behavioral tests
# Protocol: FIG. 4. Administration of osteocalcin prevents anxiety and depression. (A-E) Behavioral analyses of adult Osteocalcin^−/− mice receiving osteocalcin through intracerebro-ventricular (ICV) infusions. (A) Light and Dark test, (B) Elevated plus maze test, (C) Open field test, (D) Forced swim test, and (E) Tail suspension test performed in a cohort of WT (n=7) and Osteocalcin^−/− infused with vehicle or osteocalcin (10 ng/hour). In each set of three bars, the rightmost bar represents the results following administration of osteocalcin.
# Osteocalcin^−/−, Gprc6a^−/−, Osteocalcin-mCherry, and Osteocalcin floxed mice have been previously described (Ducy et al., 1996, Nature 382:448-452; Oury et al., 2011, Cell 144:796-809). Mouse genotypes were determined by PCR. For all experiments, controls were littermate female WT, Cre-expressing, or flox/flox. All mice were maintained on a pure 129-Sv genetic background except for the inducible deletion Osteocalcin model (mix background: 25% C57/BL6 and 75% 129sv). […] Leptin and osteocalcin content in sera and tissues were determined by ELISA.
# Tail suspension testing was performed as previously described (Mayorga et al., 2001, J. Pharmacology Exper. Therapeutics 298:1101-1107; Stem et al., 1985, Psychopharmacology 85:367-370). […] The parameter recorded was the number of seconds spent immobile. Mice were scored by a highly trained observer, over a 5 min period, blind to the genotype of the mice.
# Anxiety and locomotor activity of mice were measured using the open field test (David et al., 2009, Neuron 62:479-493). […] Mice were monitored throughout each test session by video tracking and analyzed using Matlab software. […] The overall motor activity was quantified as the total distance travelled. The anxiety was quantified measuring the number of rearings and the time and distance spent in the center versus periphery of the open field chamber (in %).
# Each mouse was allowed to explore the apparatus for 5 min. Global activity was assessed by measuring the number of entries […] (David et al, 2009, Neuron 62:479-493). […]
# aged WT mice = assay: ICV infusion in aged WT mice, Novel Object Recognition test; settings: ICV 10 ng/hr for one month, 16 month old WT mice
# Protocol: FIG. 9. Osteocalcin improves hippocampal function in aged wild-type (WT) mice. Constant and novel object investigation in the Novel Object Recognition test in 17 month old mice treated for 1 month with vehicle or 10 ng/hr recombinant uncarboxylated osteocalcin.
# ICV pumps delivering (10 ng/hr) recombinant uncarboxylated full-length mouse osteocalcin were implanted in 16 month old WT mice. After an infusion period of one month, the mice were subjected to a modified version of the Novel Object Recognition test, to assay memory and hippocampal function. Briefly, mice were given five 5 minute exposures, with 3 minute resting intervals between exposures, to a novel arena containing two objects. During exposures 1-4, mice were habituated to these two objects, which elicited equal amounts of exploration. In the fifth exposure, one of the objects was replaced with a novel object.
molecule,measurement,setting,value
B1,"osteocalcin concentration in brainstem, thalamus and hypothalamus relative to that observed in serum",[1],~50%
same,leakage of centrally delivered hormone into the general circulation (osteocalcin in blood),"Osteocalcin-/- mice; ICV 10 ng/hour, infused Osteocalcin-/- mice",no leakage
same,"anxiety and depression features (DLT, EPMT, OFT, FST, TST)","Osteocalcin-/- mice; ICV 10 ng/hour, week-long treatment, Osteocalcin-/- mice",corrected the anxiety and depression features
same,"defects in anxiety, depression, learning, and memory",Osteocalcin-/- mice; direct administration to the brains of adult Osteocalcin-/- mice,"rescued defects in anxiety, depression, learning, and memory"
same,discrimination between novel and constant objects,aged WT mice,able to discriminate between the novel and constant objects
